Source: paper PMC4847155 (Biochemical Journal, 2016)

Molecular target: Bax (Homo sapiens, UniProt Q07812)
Type: biochemical
Conditions: 100 nM Bax, 10 μM compound or 20 nM cBid/Bim, no membranes, DSS

Chain of Bax (Q07812 whole entry): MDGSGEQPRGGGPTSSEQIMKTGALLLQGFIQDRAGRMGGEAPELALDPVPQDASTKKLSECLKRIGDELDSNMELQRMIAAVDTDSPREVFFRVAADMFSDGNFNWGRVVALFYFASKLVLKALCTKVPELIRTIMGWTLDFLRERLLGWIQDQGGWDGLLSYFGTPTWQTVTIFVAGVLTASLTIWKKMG

B1: cBid: known Bax activator protein, pro-apoptotic BH3 protein, recombinant (protein, UniProt P55957 61-195, looked up)
BH3-interacting domain death …: GNRSSHSRLGRIEADSESQEDIIRNIARHLAQVGDSMDRSIPPGLVNGLALQLRNTSRSEEDRNRDLATALEQLLQAYPRDMEKEKTMLVLALLLAKKVASHTPSLLRDVFHTTVNFINQNLRTYVRSLARNGMD
modifications: BH3-interacting domain death agonist p15
- formation of dimers and higher-order Bax oligomers in solution: no effects
